From patent US7618787B2, “Method of screening compound capable of accelerating or inhibiting apoptosis, apoptosis accelarator and apoptosis inhibitor” (Hisamitsu Pharmaceutical Co., Inc., priority 2004, dated 2009)

What was measured:
Format in all cases: binding
p73 [1] = molecular target: T1, p73 (Homo sapiens, UniProt O15350); assay: Co-immunoprecipitation with p73 in transfected COS7 cells; conditions: COS7, data not shown
T1 construct: expressed in transfected cells; host or cells: COS7
T1 sequence (O15350 1-499 isoform O15350-2): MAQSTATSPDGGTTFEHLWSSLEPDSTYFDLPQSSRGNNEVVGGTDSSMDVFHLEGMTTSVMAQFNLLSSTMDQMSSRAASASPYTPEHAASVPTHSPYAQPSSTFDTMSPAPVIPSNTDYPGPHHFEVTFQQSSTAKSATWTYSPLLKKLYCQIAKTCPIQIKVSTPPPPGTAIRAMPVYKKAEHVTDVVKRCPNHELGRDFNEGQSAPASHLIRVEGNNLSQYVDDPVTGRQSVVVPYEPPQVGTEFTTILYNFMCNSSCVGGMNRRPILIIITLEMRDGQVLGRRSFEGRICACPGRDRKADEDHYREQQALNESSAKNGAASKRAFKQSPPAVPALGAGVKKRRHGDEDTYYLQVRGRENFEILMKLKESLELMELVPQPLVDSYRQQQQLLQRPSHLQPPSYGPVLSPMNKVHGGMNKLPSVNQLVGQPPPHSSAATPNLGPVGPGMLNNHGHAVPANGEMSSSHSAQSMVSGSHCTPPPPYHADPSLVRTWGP
Description: (§1) Whole cell lysates were centrifuged at 15000 rpm for 15 minutes to remove cell debris. The obtained supernatant was pretreated at 4° C. for 30 minutes with protein G-Sepharose (50% slurry, 30 μL; Amersham Pharmacia Biotech). After centrifugation, the supernatant was incubated at 4° C. for 2 hours with an anti-HA polyclonal (Medical and Biological Laboratories) or anti-FLAG monoclonal antibody. The immunocomplexes were precipitated at 4° C. for 30 minutes with protein G-Sepharose beads. After collection by brief centrifugation, the immunoprecipitates were washed three times with lysis buffer, then suspended in 30 μL of 2×Laemmli SDS sample buffer, and treated at 100° C. for 5 minutes. The supernatant was loaded onto 10% SDS-PAGE and analyzed by immunoblot as described above.
(§2) To investigate whether IKK-α interacted with p73 in cultured mammal cells, whole cell lysates were prepared from transfected COS7 cells, then immunoprecipitated with an anti-FLAG or anti-HA antibody, and analyzed by immunoblot using an anti-p73 or anti-FLAG antibody, respectively. […] Likewise, HA-p73β was co-immunoprecipitated with FLAG-IKK-α (data not shown). […] To identify determinants of p73 participating in the interaction with IKK-α, several deletion mutants of p73 fused to GST were prepared and examined for their abilities to bind to FLAG-IKK-α by in-vitro pull-down assay. These mutants were designed on the basis of the functional domains of p73 including transactivation, DNA-binding, oligomerization, and SAM domains (FIG. 12).

p73 [2] = molecular target: T2, p73 (Homo sapiens, UniProt O15350); assay: as above; conditions: COS7, co-immunoprecipitation (FIG. 10, FIG. 28)
T2 construct: expressed in transfected cells; host or cells: COS7
T2 sequence (O15350 1-636): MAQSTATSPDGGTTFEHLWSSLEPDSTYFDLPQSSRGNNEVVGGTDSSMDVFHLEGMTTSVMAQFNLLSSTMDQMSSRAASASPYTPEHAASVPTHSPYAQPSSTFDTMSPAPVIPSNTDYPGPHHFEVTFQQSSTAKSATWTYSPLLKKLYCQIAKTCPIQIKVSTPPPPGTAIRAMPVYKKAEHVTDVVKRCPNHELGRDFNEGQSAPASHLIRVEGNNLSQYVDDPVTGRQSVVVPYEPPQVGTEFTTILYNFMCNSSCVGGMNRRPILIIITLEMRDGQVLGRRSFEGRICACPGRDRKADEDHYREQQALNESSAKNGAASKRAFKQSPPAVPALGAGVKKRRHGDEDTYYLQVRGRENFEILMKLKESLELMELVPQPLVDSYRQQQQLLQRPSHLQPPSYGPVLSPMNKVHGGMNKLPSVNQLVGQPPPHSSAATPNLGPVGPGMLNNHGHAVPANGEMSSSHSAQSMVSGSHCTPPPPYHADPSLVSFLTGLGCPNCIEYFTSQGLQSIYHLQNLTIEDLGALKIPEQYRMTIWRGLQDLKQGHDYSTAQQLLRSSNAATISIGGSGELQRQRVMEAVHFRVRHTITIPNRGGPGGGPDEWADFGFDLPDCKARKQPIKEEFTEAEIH
Description: as §1, §2

GST-p73 fusion proteins = molecular target: T3, GST-p73 fusion proteins (Homo sapiens, UniProt O15350); assay: In vitro GST pull-down assay; conditions: in vitro pull-down (FIG. 13)
T3 construct: made in house
T3 sequence (O15350 114-328): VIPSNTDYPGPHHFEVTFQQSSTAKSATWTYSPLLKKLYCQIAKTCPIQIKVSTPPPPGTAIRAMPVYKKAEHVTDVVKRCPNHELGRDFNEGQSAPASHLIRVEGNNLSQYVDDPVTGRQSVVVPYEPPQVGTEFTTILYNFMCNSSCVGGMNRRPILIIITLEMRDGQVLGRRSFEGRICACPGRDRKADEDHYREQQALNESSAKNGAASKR
Description: Whole cell lysates prepared from COS7 cells expressing FLAG-IKK-α were mixed with glutathione S-transferase (GST) or GST fusion protein and incubated with slow shaking at 4° C. for 2 hours in the presence of glutathione-Sepharose beads (Amersham Pharmacia Biotech). Then, the Sepharose beads were precipitated by brief centrifugation and vigorously washed with NETN buffer (pH 7.5; 50 mM Tris-Cl, 150 mM sodium chloride, 0.1% NP-40, and 1 mM EDTA) containing 1 mM PMSF. The proteins bound with the beads were eluted therefrom by the addition of 30 μL of 2×Laemmli SDS sample buffer, then boiled for 5 minutes, and separated with 10% SDS-PAGE. The proteins were transferred to PVDF membranes and immunoblotted with […] as described above.
as §2, with “These mutants were designed on the basis of the functional domains of p73 including transactivation, DNA-binding, oligomerization, and SAM domains (FIG. 12).” left out

B1: IKK-α: IKK-α protein, amino acid sequence SEQ ID NO: 24, expressed from plasmid; apoptosis enhancer (protein, listed as Homo sapiens)
chain: MERPPGLRPGAGGPWEMRERLGTGGFGNVCLYQHRELDLKIAIKSCRLELSTKNRERWCHEIQIMKKLNHANVVKACDVPEELNILIHDVPLLAMEYCSGGDLRKLLNKPENCCGLKESQILSLLSDIGSGIRYLHENKIIHRDLKPENIVLQDVGGKIIHKIIDLGYAKDVDQGSLCTSFVGTLQYLAPELFENKPYTATVDYWSFGTMVFECIAGYRPFLHHLQPFTWHEKIKKKDPKCIFACEEMSGEVRFSSHLPQPNSLCSLIVEPMENWLQLMLNWDPQQRGGPVDLTLKQPRCFVLMDHILNLKIVHILNMTSAKIISFLLPPDESLHSLQSRIERETGINTGSQELLSETGISLDPRKPASQCVLDGVRGCDSYMVYLFDKSKTVYEGPFASRSLSDCVNYIVQDSKIQLPIIQLRKVWAEAVHYVSGLKEDYSRLFQGQRAAMLSLLRYNANLTKMKNTLISASQQLKAKLEFFHKSIQLDLERYSEQMTYGISSEKMLKAWKEMEEKAIHYAEVGVIGYLEDQIMSLHAEIMELQKSPYGRRQGDLMESLEQRAIDLYKQLKHRPSDHSYSDSTEMVKIIVHTVQSQDRVLKELFGHLSKLLGCKQKIIDLLPKVEVALSNIKEADNTVMFMQGKRQKEIWHLLKIACTQSSARSLVGSSLEGAVTPQTSAWLPPTSAEHDHSLSCVVTPQDGETSAQMIEENLNCLGHLSTIIHEANEEQGNSMMNLDWSWLTE
co-immunoprecipitation with HA-p73β (p73 [1]): co-immunoprecipitated
complex formation with HA-p73α (p73 [2]): formed stable complexes
binding to GST-p73 deletion mutants (GST-p73 fusion proteins): bonded to GST-p73 (114-328) but not to other GST-fused proteins
